Results taken from patent US8663916B2 (priority 2006, dated 2014).
Where two headings read alike, the source gives them in different places.

B1: Ph-CA2: fusion peptide of colicin Ia with Candida albicans alpha-mating pheromone n-terminal to the colicin Ia; SEQ ID NO:7; from plasmid pCHCCA2 (protein)
chain: GFRLYNFGYFEPGKDAINFTTEFLKSVSEKYGAKAEQLAREMAGQAKGKKIRNVEEALKTYEKYRADINKKINAKDRAAIAAALESVKLSDISSNLNRFSRGLGYAGKFTSLADWITEFGKAVRTENWRPLFVKTETIIAGNAATALVALVFSILTGSALGIIGYGLLMAVTGALIDESLVEKANKFWGI
modifications: Amino acid sequence of Ph-CA2
notes: fusion peptide of colicin Ia with Candida albicans alpha-mating pheromone n-terminal to the colicin Ia; from plasmid pCHCCA2
B2: Ph-CA1: fusion peptide of colicin Ia with Candida albicans alpha-mating pheromone c-terminal to the colicin Ia; SEQ ID NO:5; from plasmid pCHCCA1 (protein)
chain: DAINFTTEFLKSVSEKYGAKAEQLAREMAGQAKGKKIRNVEEALKTYEKYRADINKKINAKDRAAIAAALESVKLSDISSNLNRFSRGLGYAGKFTSLADWITEFGKAVRTENWRPLFVKTETIIAGNAATALVALVFSILTGSALGIIGYGLLMAVTGALIDESLVEKANKFWGIGFRLYNFGYFEPGK
modifications: Amino acid sequence of Ph-CA1
notes: fusion peptide of colicin Ia with Candida albicans alpha-mating pheromone c-terminal to the colicin Ia; from plasmid pCHCCA1

Tests used:
[1] = test system: ATCC 10231 C. albicans cells; test: cell growth inhibition assay in M-H liquid medium (turbidity, filament sedimentation, microscopy); format: cell-based, Candida albicans; details: for spores under microscope: 2 ul treated medium on a slide, Ph-CA1 10 ug/ml, amphotericin B 2 ug/ml, FIG. 5
Source text: FIG. 4 depicts the inhibition effects of Ph-CA against the growth of ATCC 10231 C. albicans cells in M-H liquid medium. The amount of sedimentary fungal filaments at the bottom of flasks indicated the inhibition effects of treatment agents. (A) Control, (B) fluconazole, (C) amphotericin B, (D) Ph-SA, (E) Ph-CA2 produced by pCHCCA2 plasmid and (F) Ph-CA1.
FIG. 5 depicts the inhibition effects of Ph-CA against the growth of C. albicans cells in liquid medium. The amount of spores and filaments of ATCC 10231 C. albicans cells indicated the inhibition effects. (A) Control, (B) fluconazole, (C) amphotericin B, (D) Ph-SA, (E) Ph-CA2 (F) Ph-CA1. X400.
In vitro cell growth inhibition assays were performed in 100 ml Klett flasks containing 10 ml of M-H medium which were monitored turbimetrically with a BioRad 550 microplate reader at OD595 nm every 60 min. The filament (mycelium) precipitation at the bottom of flask was counted with a digital photo-recorder every 6 hrs. Cells were inoculated to an initial cell density of about 2.5×10^5 CFU/ml and shaken at 200 rpm on an orbital shaker at 35° C. Sedimentary fungal filaments appeared in about 36 hrs growing.
Ph-CA1 and Ph-CA2 were added at the start of the culture. The same amount of borate stock solution (50 mM borate, PH9.0), Ph-SA (pheromonicin constructed by colicin Ia and staphylococcal pheromone AgrD1)(10 ug/ml) and several antibiotics preparations (2 ug/ml amphotericin B, 6 ug/ml fluconazole) were used as controls. All assays were expressed in turbidometric absorbance units measured at 595 nm and pictures of the filament sedimentation at the bottom of the flask were taken.

Magnaporthe grisea [2] = format: in vivo, rice (seed, gangyou 725); details: sprayed once at head stage: tricyclazole 1 mg/ml, Ph-CA1 2 ug/ml
Magnaporthe grisea [3] = format: in vivo, rice (seed, gangyou 725); details: for Grades of impaired leaves 0 (number of leaves) / Grades of impaired leaves 1 (number of leaves) / Grades of impaired leaves 3 (number of leaves) / Grades of impaired leaves 5 (number of leaves) / Incident rate / Infected index / Protecting efficacy: seven days after treatment, sprayed twice: tricyclazole 0.5 and 1 mg/ml, Ph-CA1 1 and 2 ug/ml, 200 leaves
[4] = test system: ATCC 10231 C. albicans cells; test: fluorescent imaging with FITC/propidium iodide; format: cell-based, Candida albicans; details: 10 ug/ml, 24 hrs; 50 nM FITC/600 nM propidium iodide
Experimental: FIG. 6 depicts the fluorescent imaging of ATCC 10231 C. albicans cells treated by Ph-CA1 and stained with 50 nM FITC/600 nM propidium iodide. […] X400.

[5] = test system: Candida albicans (ATCC 10231); format: cell-based
[6] = test system: Cryptococcus neoformans (Huaxi 30168 strain); format: cell-based
[7] = repeated intraperitoneal dosing in mice, bodyweight and histology; format: in vivo, KungMing mice; details: 200 ug/mouse/day intraperitoneally for 20 days
Experimental: KungMing mice (n=10), half male and half female, weighing 18-22 g were injected intraperitoneally with Ph-CA1 (200 ug/mouse/day) for 20 days. The bodyweight of all mice was increased.

[8] = test system: Fusarium moniforme (ACCC 30133 strain); format: cell-based
[9] = test system: Magnaporthe grisea (ACCC 30320 strain); format: cell-based; details: PDA solid medium; 100 ul Ph-CA1 25 and 50 ug/ml; FIG. 9
[10] = test system: Aspergillus flavus (Huaxi 30255 strain); format: cell-based
[11] = test system: Cryptococcus neoformans, Aspergillus flavus, Magnaporthe grisea and Fusarium moniforme cells; format: cell-based; details: on a molar basis
C. albicans (ATCC 10231) = test: systemic candidiasis in mice, survival; format: in vivo, KungMing mice
Experimental: KungMing mice, half male and half female, weighing 18-22 g were injected intraperitoneally with 0.5 ml of C. albicans (ATCC 10231), 10^8 CFU/ml. One hour after C. albicans injection, mice were injected intraperitoneally with 0.9% saline […] alone as control (n=10) (C), or with amphotericin B (n=10, 1 ug/gm/day) (B), or with Ph-CA1 (n=10, 5 ug/gm/day) (A) daily for 14 days. The number of surviving animals was determined every 24 hours (FIG. 11).
KungMing mice, half male and half female, weighing 18-22 g were injected intraperitoneally with 0.7 ml of C. albicans (ATCC 10231), 10^8 CFU/ml. One hour after C. albicans injection, mice were injected in the tail vein with 0.9% saline alone as control (n=10) (C), or with amphotericin B (n=10, 1 ug/gm) (B), or with Ph-CA1 (n=10, 5 ug/gm) (A). The mice were then injected intraperitoneally with 0.9% saline alone, or with amphotericin B (n=10, 1 ug/gm), or with Ph-CA1 (n=10, 5 ug/gm) each day. The number of surviving animals was determined every 24 hours (FIG. 12).

Row | Molecule | Damage rate (Magnaporthe grisea [2]) | Grades of impaired ears 0 (number of ears) (Magnaporthe grisea [2]) | Grades of impaired ears 1 (number of ears) (Magnaporthe grisea [2]) | Grades of impaired ears 3 (number of ears) (Magnaporthe grisea [2]) | Grades of impaired ears 5 (number of ears) (Magnaporthe grisea [2]) | Grades of impaired ears 7 (number of ears) (Magnaporthe grisea [2]) | Grades of impaired ears 9 (number of ears) (Magnaporthe grisea [2]) | Impaired ears rate (Magnaporthe grisea [2]) | Infected index (Magnaporthe grisea [2]) | Grades of impaired leaves 0 (number of leaves) (Magnaporthe grisea [3]) | Grades of impaired leaves 1 (number of leaves) (Magnaporthe grisea [3]) | Grades of impaired leaves 3 (number of leaves) (Magnaporthe grisea [3]) | Grades of impaired leaves 5 (number of leaves) (Magnaporthe grisea [3]) | Incident rate (Magnaporthe grisea [3]) | Infected index (Magnaporthe grisea [3]) | Protecting efficacy (Magnaporthe grisea [3]) | spores under microscope [1] | antifungal effect on Candida albicans in vitro [1] | further results
1 | OC(Cn1cncn1)(Cn1cncn1)c1ccc(F)cc1F [Fluconazole, fluconazole, reference compound] | – | – | – | – | – | – | – | – | – | – | – | – | – | – | – | – | – | – | effect on growth of C. albicans ([1]; 6 ug/ml, M-H liquid medium): no effect
2 | Cc1cccc2sc3nncn3c12 [Tricyclazole, tricyclazole, reference compound] | 1.63% | 184 | 16 | 9 | 2 | 2 | 0 | 13.62% | 3.5 | 172 | 10 | 12 | 6 | 14 | 4.22 | 75.83 | – | – | –
3 | C[C@@H]1[C@H](O)[C@@H](C)/C=C/C=C/C=C/C=C/C=C/C=C/C=C/[C@H](O[C@@H]2O[C@H](C)[C@@H](O)[C@H](N)[C@@H]2O)C[C@@H]2O[C@](O)(C[C@@H](O)C[C@@H](O)[C@H](O)CC[C@@H](O)C[C@@H](O)CC(=O)O[C@H]1C)C[C@H](O)[C@H]2C(=O)O [amphotericin B, reference compound] | – | – | – | – | – | – | – | – | – | – | – | – | – | – | – | – | scarcely observed | – | effect on growth of C. albicans ([1]; 2 ug/ml, M-H liquid medium): completely inhibited
4 | B1 | – | – | – | – | – | – | – | – | – | – | – | – | – | – | – | – | – | almost had no effect | inhibition effect relative to that of Ph-CA1 ([1]; 10 ug/ml, M-H liquid medium): about 30%
5 | B2 | 0.53% | 218 | 19 | 5 | 0 | 0 | 0 | 9.92% | 1.56 | 67 | 12 | 13 | 8 | 16.5 | 5.05 | 70.94 | scarcely observed | definite antifungal effect | total effects against rice blast disease relative to tricyclazole (Magnaporthe grisea [3]; concentration and molar basis taken together, both in vivo protecting assays (Tables I and II)): 10^4 to 10^5 times; protecting effects relative to tricyclazole (Magnaporthe grisea [3]; on a molar basis, both in vivo protecting assays (Tables I and II)): three hundred times greater; cell membrane damage (propidium iodide entry, cells stained red) [4]: cells became red; inhibition zone [5]: inhibition-zone; antifungal effects [6]: definite antifungal effects; bodyweight [7]: increased; microscopic findings in livers, kidneys or spleens ([7]; hematoxylin and eosin): no microscopic evidence of necrosis or inflammation; antifungal effects [8]: definite antifungal effects; antifungal effects [9]: definite antifungal effects; antifungal effects [10]: definite antifungal effects; effect on growth of C. albicans ([1]; 10 ug/ml, M-H liquid medium): completely inhibited; inhibitory effect relative to amphotericin B ([1]; on a molar basis, Ph-CA1 70 kDa, amphotericin B about 0.9 kDa): approximately ten times greater; antifungal effects relative to known antifungal antibiotics [11]: one hundred to one thousand times greater; antifungal effect on Candida albicans in vivo (C. albicans (ATCC 10231); in vivo): definite antifungal effect; in vivo antifungal activity against systemic candidiasis relative to amphotericin B (C. albicans (ATCC 10231); on a molar basis, Ph-CA1 5 ug/gm, amphotericin B 1 ug/gm): at least twenty times greater
